The source of these data is paper PMC4072508, “Genome-Wide Prediction and Validation of Peptides That Bind Human Prosurvival Bcl-2 Proteins” (PLoS Computational Biology, 2014).

For one assay, the target named is T1, Bcl-xL (Homo sapiens, UniProt Q07817).
T1 construct: myc-Bcl-xL SPOT array & FP; made in house
The assay is described as follows: LUMIER full-length protein interaction. The format is binding. Particulars: LUMIER results for Bcl-xL, Z-score of the interaction relative to the Gaussian fit of the data. The protocol: (§1) The LUMIER assay was carried out as previously described with the following modifications. A stable cell line expressing receptor tagged on the N-terminus with Nanoluc luciferase was created (the prey). […] Each bait construct was transfected into the receptor-luciferase cells in a 96-well format and after 48 hours the cells were lysed and transferred to 384-well plates coated with anti-FLAG. After incubation and washing, luminescence was measured to quantify how much receptor-luciferase was captured by the bait protein. Anti-Flag ELISA signal was used to exclude bait proteins that were not expressed. The experiment was carried out two times, each in duplicate.

In a further assay the target is T2, Mcl-1 (Homo sapiens, UniProt Q07820).
T2 construct: myc-Mcl-1 SPOT array & FP; made in house
T2 sequence (Q07820 with tags, fused parts or gaps): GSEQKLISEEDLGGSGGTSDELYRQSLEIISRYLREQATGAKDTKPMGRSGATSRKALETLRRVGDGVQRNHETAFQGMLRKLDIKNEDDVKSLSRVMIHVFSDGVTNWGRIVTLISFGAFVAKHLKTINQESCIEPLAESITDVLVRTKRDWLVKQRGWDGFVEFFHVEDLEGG
Briefly: LUMIER full-length protein interaction. The format is binding. The settings on record: LUMIER results for Mcl-1, Z-score relative to Gaussian fit of the data. The protocol: as §1

T1 sequence (Q07817 with tags, fused parts or gaps): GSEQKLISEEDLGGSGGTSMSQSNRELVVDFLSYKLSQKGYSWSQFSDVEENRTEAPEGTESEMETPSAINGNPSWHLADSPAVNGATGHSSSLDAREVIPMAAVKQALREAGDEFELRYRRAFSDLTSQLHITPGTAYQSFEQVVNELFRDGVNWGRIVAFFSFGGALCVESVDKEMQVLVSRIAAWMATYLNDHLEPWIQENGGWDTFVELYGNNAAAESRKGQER

B1: MTA2 (protein, UniProt O94776 1-668, looked up)
Metastasis-associated protein …: MAANMYRVGDYVYFENSSSNPYLVRRIEELNKTANGNVEAKVVCLFRRRDISSSLNSLADSNAREFEEESKQPGVSEQQRHQLKHRELFLSRQFESLPATHIRGKCSVTLLNETDILSQYLEKEDCFFYSLVFDPVQKTLLADQGEIRVGCKYQAEIPDRLVEGESDNRNQQKMEMKVWDPDNPLTDRQIDQFLVVARAVGTFARALDCSSSIRQPSLHMSAAAASRDITLFHAMDTLQRNGYDLAKAMSTLVPQGGPVLCRDEMEEWSASEAMLFEEALEKYGKDFNDIRQDFLPWKSLASIVQFYYMWKTTDRYIQQKRLKAAEADSKLKQVYIPTYTKPNPNQIISVGSKPGMNGAGFQKGLTCESCHTTQSAQWYAWGPPNMQCRLCASCWIYWKKYGGLKTPTQLEGATRGTTEPHSRGHLSRPEAQSLSPYTTSANRAKLLAKNRQTFLLQTTKLTRLARRMCRDLLQPRRAARRPYAPINANAIKAECSIRLPKAAKTPLKIHPLVRLPLATIVKDLVAQAPLKPKTPRGTKTPINRNQLSQNRGLGGIMVKRAYETMAGAGVPFSANGRPLASGIRSSSQPAAKRQKLNPADAPNPVVFVATKDTRALRKALTHLEMRRAARRPNLPLKVKPTLIAVRPPVPLPAPSHPASTNEPIVLED
For B1, the “z-score 1.1” value with Bcl-xL (experiment 1, duplicate 1) is 11.5243. Besides, the “z-score 1.2” value was found to be 0.8005 with Bcl-xL (experiment 1, duplicate 2) and 0.31 with Mcl-1 (experiment 1, duplicate 2). The “z-score 2.1” value is reported as -0.1835 with Bcl-xL (experiment 2, duplicate 1) and 0.117 in the assay with Mcl-1 (experiment 2, duplicate 1). Moreover, the “z-score 2.2” value with Bcl-xL (experiment 2, duplicate 2) is on record as 0.205; with Mcl-1 (experiment 2, duplicate 2), 0.04852.
